Laboratory results taken from US9255132B2, “Angiopoietin derived peptides” (Compugen Ltd., priority 2008, dated 2016).
“Also recorded” adds a separate entry of the source. Each block holds one compound with its values, some of them ahead of it. Residues, ends and D or L forms follow the SMILES beside them.

Assays:
Settings in all cases: CM5 chip, 10-50 μM peptide
[1] = target: T1, human Ang2 (Homo sapiens, UniProt O15123); experiment: BIACORE (SPR) binding of peptides to immobilized recombinant Ang2
T1 construct: purchased R&D Systems 623-AN-025/CF
T1 sequence (O15123 19-496): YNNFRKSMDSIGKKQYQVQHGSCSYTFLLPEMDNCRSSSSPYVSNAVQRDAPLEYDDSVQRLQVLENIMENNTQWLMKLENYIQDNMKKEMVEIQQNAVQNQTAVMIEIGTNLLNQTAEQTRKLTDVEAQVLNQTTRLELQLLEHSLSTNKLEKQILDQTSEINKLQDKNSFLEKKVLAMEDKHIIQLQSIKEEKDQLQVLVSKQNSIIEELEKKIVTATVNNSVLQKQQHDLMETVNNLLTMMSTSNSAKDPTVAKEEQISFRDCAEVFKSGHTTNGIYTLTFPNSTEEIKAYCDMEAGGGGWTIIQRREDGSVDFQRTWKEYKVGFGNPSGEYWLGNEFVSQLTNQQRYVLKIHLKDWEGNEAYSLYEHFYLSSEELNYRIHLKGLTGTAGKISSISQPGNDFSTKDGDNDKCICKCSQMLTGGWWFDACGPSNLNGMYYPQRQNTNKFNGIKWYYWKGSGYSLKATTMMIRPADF
Excerpt: (§1) The capability of CGEN-H2 [SEQ ID NO: 1], CGEN-H3 [SEQ ID NO: 2], CGEN-A8 [SEQ ID NO: 3], CGEN-H7 [SEQ ID NO: 4], CGEN-G4 [SEQ ID NO: 5], CGEN-G6 [SEQ ID NO: 6], CGEN-F9 [SEQ ID NO: 7], CGEN-F12 [SEQ ID NO: 8], CGEN-C6-30 [SEQ ID NO: 9], CGEN-All [SEQ ID NO: 10], and CGEN-G2 [SEQ ID NO: 11] to specifically bind to recombinant Ang1, Ang2, and Ang4 was investigated using the BIACORE technology, measuring protein-protein interaction and binding affinity (Wendler et al 2005, Anal Bioanal Chem, 381: 1056-1064). The technology is based on surface plasmon resonance (SPR), an optical phenomenon that enables detection of unlabeled interactants in real time. The SPR-based biosensors can be used in determination of active concentration, screening and characterization in terms of both affinity and kinetics.
(§2) Peptide-protein binding was analyzed using surface plasmon resonance. Analysis of the to interaction between CGEN-H2 [SEQ ID NO: 1], CGEN-H3 [SEQ ID NO: 2], CGEN-A8 [SEQ ID NO: 3], CGEN-H7 [SEQ ID NO: 4], CGEN-G4 [SEQ ID NO: 5], CGEN-G6 [SEQ ID NO: 6], CGEN-F9 [SEQ ID NO: 7], CGEN-F12 [SEQ ID NO: 8], CGEN-C6 [SEQ ID NO: 9], CGEN-A11 [SEQ ID NO: 10], and CGEN-G2 [SEQ ID NO: 11] peptides and recombinant human Ang1 carrier-free (R&D Systems, Cat#923-AN-025/CF, Lot#FHW1507031), human Ang2 carrier-free (R&D Systems, Cat#623-AN-025/CF, Lot#BNO0457121), and human Ang4 carrier-free (R&D Systems, Cat#964-AN-025/CF, Lot#ELM025121) was conducted using the BIAcore biosensor (Pharmacia Biosensor, Uppsala, Sweden). The recombinant Ang1, Ang2, and Ang4 were immobilized directly to a CM5 sensor chip. Solutions containing 10-50 μM of CGEN-H2 [SEQ ID NO: 1], CGEN-H3 [SEQ ID NO: 2], CGEN-A8 [SEQ ID NO: 3], CGEN-H7 [SEQ ID NO: 4], CGEN-G4 [SEQ ID NO: 5], CGEN-G6 [SEQ ID NO: 6], CGEN-F9 [SEQ ID NO: 7], CGEN-F12 [SEQ ID NO: 8], CGEN-C6 [SEQ ID NO: 9], CGEN-A11 [SEQ ID NO: 10], and CGEN-G2 [SEQ ID NO: 11] peptides were injected into the sample chamber of the BIACORE device at a rate of […] and the interaction was monitored using surface plasmon resonance.
(§3) Solutions containing different concentrations of CGEN-G6 [SEQ ID NO: 6], CGEN-F9 [SEQ ID NO: 7], CGEN-F12 [SEQ ID NO: 8], CGEN-A11 [SEQ ID NO: 10], and CGEN-G2 [SEQ ID NO: 11] peptides (as indicated in Table 2) were injected into the sample chamber of the BIACORE device at a rate of […] and the interaction was monitored using surface plasmon resonance. As a background, the solutions were also injected onto an empty flow cell with no immobilized ligand and the in binding levels achieved were subtracted. Data was analyzed using BIAevaluation software. The affinity constant of the interaction between CGEN-G6 [SEQ ID NO: 6], CGEN-F9 [SEQ ID NO: 7], CGEN-F12 [SEQ ID NO: 8], CGEN-C6 [SEQ ID NO: 9], CGEN-A11 [SEQ ID NO: 10], and CGEN-G2 [SEQ ID NO: 11] and Ang1, Ang2, or Ang4 was determined by direct kinetic analysis. The 1:1 Langmuir binding model was used to fit kinetic data.
(§4) Table 2 summarizes results of analysis of CGEN-G6 [SEQ ID NO: 6], CGEN-F9 [SEQ ID NO: 7], CGEN-F12 [SEQ ID NO: 8], CGEN-A11 [SEQ ID NO: 10], and CGEN-G2 [SEQ ID NO: 11] interaction with Ang1, Ang2, or Ang4. Kinetic measurements were done at the indicated concentration range, and they are presented as KD (M). CGEN-F12 [SEQ ID NO: 8] bound to Ang1 and Ang4 with high affinity. The specificity of this binding is not clear.

[2] = target: T2, human Ang4 (Homo sapiens, UniProt Q9Y264); experiment: BIACORE (SPR) binding of peptides to immobilized recombinant Ang4
T2 construct: purchased R&D Systems 964-AN-025/CF
T2 sequence (Q9Y264 25-503): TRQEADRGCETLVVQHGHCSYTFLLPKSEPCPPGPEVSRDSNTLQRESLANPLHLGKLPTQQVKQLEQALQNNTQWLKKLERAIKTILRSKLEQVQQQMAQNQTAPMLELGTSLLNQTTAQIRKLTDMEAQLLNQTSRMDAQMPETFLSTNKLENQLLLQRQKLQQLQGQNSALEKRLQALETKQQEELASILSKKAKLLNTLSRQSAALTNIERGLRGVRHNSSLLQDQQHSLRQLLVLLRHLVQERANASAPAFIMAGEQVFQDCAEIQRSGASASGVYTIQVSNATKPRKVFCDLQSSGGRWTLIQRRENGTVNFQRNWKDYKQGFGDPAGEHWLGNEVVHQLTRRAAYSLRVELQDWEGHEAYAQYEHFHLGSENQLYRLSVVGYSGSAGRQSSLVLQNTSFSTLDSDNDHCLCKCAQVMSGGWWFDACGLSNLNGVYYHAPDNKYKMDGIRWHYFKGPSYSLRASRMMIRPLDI
Excerpt: as §1, §2, §3, §4

[3] = target: T3, recombinant human Ang1 (Homo sapiens, UniProt Q15389); experiment: BIACORE (SPR) binding of peptides to immobilized recombinant Ang1
T3 construct: purchased R&D Systems 923-AN-025/CF
T3 sequence (Q15389 16-498): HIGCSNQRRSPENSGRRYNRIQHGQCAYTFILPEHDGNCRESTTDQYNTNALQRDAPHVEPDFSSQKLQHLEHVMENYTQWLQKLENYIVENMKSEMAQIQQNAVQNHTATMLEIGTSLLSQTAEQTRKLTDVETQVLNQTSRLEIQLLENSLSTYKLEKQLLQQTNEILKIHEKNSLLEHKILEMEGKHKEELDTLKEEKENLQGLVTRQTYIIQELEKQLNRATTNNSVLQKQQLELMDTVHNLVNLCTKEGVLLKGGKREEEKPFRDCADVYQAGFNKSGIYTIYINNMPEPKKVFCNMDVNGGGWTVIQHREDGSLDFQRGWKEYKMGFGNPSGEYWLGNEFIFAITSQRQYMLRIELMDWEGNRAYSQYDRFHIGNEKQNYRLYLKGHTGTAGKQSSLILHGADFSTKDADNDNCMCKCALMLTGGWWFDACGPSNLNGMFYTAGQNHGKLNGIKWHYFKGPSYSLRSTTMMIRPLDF
Excerpt: as §1, §2, §3, §4

binding to immobilized Ang2 (in words) [1]: none or low binding | binding to immobilized Ang4 (in words) [2]: none or low binding | binding to immobilized Ang1 (in words) [3]: none or low binding
Compound: LKEEKENLQGLVTRQTYIIQELEKQLNRAT (Ac-LKEEKENLQGLVTRQTYIIQELEKQLNRAT-NH2) [CGEN-H2, amino acid residues 212-241 of angiopoietin 1]

binding to immobilized Ang2 (in words) [1]: none or low binding | binding to immobilized Ang4 (in words) [2]: none or low binding | binding to immobilized Ang1 (in words) [3]: none or low binding
Compound: TNNSVLQKQQL (Ac-TNNSVLQKQQL-NH2) [CGEN-H3, amino acid residues 242-252 of angiopoietin 1]

binding to immobilized Ang2 (in words) [1]: none or low binding | binding to immobilized Ang4 (in words) [2]: none or low binding | binding to immobilized Ang1 (in words) [3]: none or low binding
Compound: NEILKIHEKNSLLEHKILEMEGKHK (Ac-NEILKIHEKNSLLEHKILEMEGKHK-NH2) [CGEN-H7, amino acid residues 182-206 of angiopoietin 1]

Second part, the compound before the results:

Compound: LMDTVHNLVNL (Ac-LMDTVHNLVNL-NH2) [CGEN-A8, amino acid residues 254-264 of angiopoietin 1]
binding to immobilized Ang2 (in words) [1]: none or low binding | binding to immobilized Ang4 (in words) [2]: none or low binding | binding to immobilized Ang1 (in words) [3]: none or low binding

Compound: CC(=O)N[C@@H](CCC(N)=O)C(=O)N[C@@H](Cc1c[nH]cn1)C(=O)N[C@@H](CO)C(=O)N[C@@H](CC(C)C)C(=O)N[C@@H](CCCNC(=N)N)C(=O)N[C@@H](CCC(N)=O)C(=O)N[C@@H](CC(C)C)C(=O)N[C@@H](CC(C)C)C(=O)N[C@H](C(=O)N[C@@H](CC(C)C)C(=O)N[C@@H](CC(C)C)C(=O)N[C@@H](CCCNC(=N)N)C(=O)N[C@@H](Cc1c[nH]cn1)C(=O)N[C@@H](CC(C)C)C(=O)N[C@H](C(=O)N[C@@H](CCC(N)=O)C(=O)N[C@@H](CCC(=O)O)C(=O)N[C@@H](CCCNC(=N)N)C(=O)N[C@@H](C)C(=O)N[C@@H](CC(N)=O)C(=O)N[C@@H](C)C(=O)N[C@@H](CO)C(=O)N[C@@H](C)C(N)=O)C(C)C)C(C)C [CGEN-F12] (Ac-QHSLRQLLVLLRHLVQERANASA-NH2)
binding to immobilized Ang2 (in words) [1]: capable of binding | binding to immobilized Ang4 (in words) [2]: capable of binding; also recorded: high affinity | binding to immobilized Ang1 (in words) [3]: capable of binding; also recorded: high affinity

Compound: CC[C@H](C)[C@H](NC(=O)[C@H](CO)NC(=O)[C@H](C)NC(=O)[C@H](CC(C)C)NC(=O)[C@H](CCC(=O)O)NC(=O)[C@H](CCC(=O)O)NC(=O)[C@H](CCC(N)=O)NC(C)=O)C(=O)N[C@@H](CC(C)C)C(=O)N[C@@H](CO)C(=O)N[C@@H](CCCCN)C(=O)N[C@@H](CCCCN)C(=O)N[C@@H](C)C(=O)N[C@@H](CCCCN)C(=O)N[C@@H](CC(C)C)C(=O)N[C@@H](CC(C)C)C(=O)N[C@@H](CC(N)=O)C(=O)N[C@H](C(=O)N[C@@H](CC(C)C)C(=O)N[C@@H](CO)C(=O)N[C@@H](CCCNC(=N)N)C(=O)N[C@@H](CCC(N)=O)C(=O)N[C@@H](CO)C(=O)N[C@@H](C)C(=O)N[C@@H](C)C(=O)N[C@@H](CC(C)C)C(=O)N[C@H](C(=O)N[C@@H](CC(N)=O)C(=O)N[C@H](C(=O)N[C@@H](CCC(=O)O)C(=O)N[C@@H](CCCNC(=N)N)C(=O)NCC(=O)N[C@@H](CC(C)C)C(=O)N[C@@H](CCCNC(=N)N)C(=O)NCC(=O)N[C@H](C(=O)N[C@@H](CCCNC(=N)N)C(N)=O)C(C)C)[C@@H](C)CC)[C@@H](C)O)[C@@H](C)O [CGEN-F9] (Ac-QEELASILSKKAKLLNTLSRQSAALTNIERGLRGVR-NH2)
binding to immobilized Ang2 (in words) [1]: capable of binding | binding to immobilized Ang4 (in words) [2]: capable of binding | binding to immobilized Ang1 (in words) [3]: capable of binding

Compound: TDMEAQLLNQTSRMDAQM (Ac-TDMEAQLLNQTSRMDAQM-NH2) [CGEN-C6, amino acid residues 150-167 of angiopoietin 4]
binding to immobilized Ang2 (in words) [1]: not sufficiently strong | binding to immobilized Ang4 (in words) [2]: did not bind | binding to immobilized Ang1 (in words) [3]: did not bind

Compound: QLQVLVSKQNSIIEEL (Ac-QLQVLVSKQNSIIEEL-NH2) [CGEN-G4, amino acid residues 215-230 of angiopoietin 2]
binding to immobilized Ang2 (in words) [1]: none or low binding | binding to immobilized Ang4 (in words) [2]: none or low binding | binding to immobilized Ang1 (in words) [3]: none or low binding
